The text below walks through data of paper PMC7529888 (Nature, 2020).

Data set [1] deals with PARP2 (UniProt Q9UGN5-2 1-570). The data set can be described thus: EMSA.
The target in data set [2] is PARP2 (human (from the printed UniProt …, UniProt Q9UGN5-2 1-570)). Put plainly: cryo-EM structure.

B1: hairpin DNA 5'P (structured_DNA)
DNA: TCGCGGCAGCTGGTGCTGCCGCGA
modifications: 5' phosphate
With B1, the binding result with PARP2 [1] was “binds”.

B2: HPF1 (natural protein)
chain: MVGGGGKRRPGGEGPQCEKTTDVKKSKFCEADVSSDLRKEVENHYKLSLPEDFYHFWKFCEELDPEKPSDSLSASLGLQLVGPYDILAGKHKTKKKSTGLNFNLHWRFYYDPPEFQTIIIGDNKTQYHMGYFRDSPDEFPVYVGINEAKKNCIIVPNGDNVFAAVKLFLTKKLREITDKKKINLLKNIDEKLTEAARELGYSLEQRTVKMKQRDKKVVTKTFHGAGLVVPVDKNDVGYRELPETDADLKRICKTIVEAASDEERLKAFAPIQEMMTFVQFANDECDYGMGLELGMDLFCYGSHYFHKVAGQLLPLAYNLLKRNLFAEIIEEHLANRSQENIDQLAA
In the case of B2, the binding result with PARP2 [2] is “binds”.
